± gives the standard error. Variants at the floor of the assay were thinned out.
B1: glmS ribozyme (parent)
chain: AUAAAAGCGCCAGAACUACAGAAAUGUAGUUGACGAGGAGGAGGUUUAUCGAAUUUUCGGCGGAUGCCUCCAAA

How the values were obtained:
Conditions in all cases: with glucosamine-6-phosphate
glucosamine-6-phosphate [1] = variants of: B1; test: self-cleavage kobs at 160 uM GlcN6P; higher = faster cleavage; RNA array
Outline: (§1)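 Using a hybridised Cy3 probe at 37 °C, barcoded ribozyme variants transcribed in situ by E. coli RNA polymerase on sequenced MiSeq chips were monitored across tiles imaged over ~14 h. The flow contained glucosamine-6-phosphate from 40 μM to 10 mM in HEPES/KCl/Mg(OAc)2 buffer. Signals were normalised to baseline and to non-cleaving reference variants before per-tile medians were fit to one- or two-exponential decays to yield kobs. Weighted Michaelis–Menten fits across concentrations gave kcat and KM.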

glucosamine-6-phosphate [2] = variants of: B1; test: self-cleavage kobs at 2500 uM GlcN6P; higher = faster cleavage; RNA array
Outline: as §1

glucosamine-6-phosphate [3] = variants of: B1; test: self-cleavage kobs at 640 uM GlcN6P; higher = faster cleavage; RNA array
Outline: as §1

glucosamine-6-phosphate [4] = variants of: B1; test: self-cleavage kobs at 10000 uM GlcN6P; higher = faster cleavage; RNA array
Outline: as §1

Variant	self-cleavage kobs at 160 uM GlcN6P (glucosamine-6-phosphate [1]) [s⁻¹]	self-cleavage kobs at 2500 uM GlcN6P (glucosamine-6-phosphate [2]) [s⁻¹]	self-cleavage kobs at 640 uM GlcN6P (glucosamine-6-phosphate [3]) [s⁻¹]	self-cleavage kobs at 10000 uM GlcN6P (glucosamine-6-phosphate [4]) [s⁻¹]
AUAAAAGCGCCAGAACUACAGAAAUGUAGUCCACGAGGAGGAGGUUUAUCGAAUUUUCGGCGGAUGCCUGCAAA [U31C G32C C70G]	0.000701 ± 0.0003	0.000104 ± 2.4e-05		
AUAAAAGCGCCAGAACUACAGAAAUGUAGUUGACGAGGAGCAGGUGUAUCGAAUUUCCGGCGGAUGCCUCCAAA [G41C U46G U57C]	< 1e-05	< 1e-05	< 1e-05	
AUAAAAGCUCCACAACUACAGAAAUGUAGUUGACGAGGAAGAGUUUUAUCGAAUUUUCGGCGUAUGCCUCCAAA [G9U G13C G40A G44U G63U]	< 1e-05	< 1e-05	< 1e-05	
AUAAAAGCGACAGGACUACAGAAAUGUAGUUGACGAGGAGGAGGUUUAUCGAAUUUUCGGCGGAUGCCGCCAAA [C10A A14G U69G]	0.000148 ± 5.1e-05	6.53e-05 ± 2.3e-05	0.000195 ± 7.6e-05	
AUAAAAGCGCCAGCACUACAGAAAUGUAGUUGACGCGGAGGAGGUUUAUCGAAUUUUCGGCGGAGGCCUCCAAA [A14C A36C U65G]	< 1e-05	< 1e-05	< 1e-05	
AUAAAACCGCCAGCACUACAGAAAUGUAGUUGACGAGGAGGAGGUGUAUCGAAUUUUCGGCGGAUGCCUCCAAA [G7C A14C U46G]	< 1e-05	< 1e-05	< 1e-05	
AUAAAAGCGCCAGAACUACAGAAAUGUAGUUGACGAGGUAGAGGUUUAUCGAAUUUUCGGCGGGUGCCUCCAAA [A39U G40A A64G]	0.000419 ± 0.00012	0.00738 ± 0.0025	0.000775 ± 0.00021	
AUAAACGCGCCAGAACUACAGAAAUGUACUUGACGAGGAGGAGGUUUAUCGAAUUUUGGGCGGAUGCCUCAAAA [A6C G29C C58G C71A]	6.35e-05 ± 1.9e-05		0.000108 ± 4.5e-05	
AUAAAAGCGCUAGAACUACAGAAAUGUAUUUGACGAGGAAGAGGUUUAUCGAAUUUUCGGCGGAUGCCUCCAAA [C11U G29U G40A]	< 1e-05		< 1e-05	5.39e-05 ± 1.7e-05
AUAAAAGCGCCAGAACUACAGAAAUGUAGUUAACGAGGAGGAGGUUUAUCGAAUUGUCGGCGGAUGCCUCCAAA [G32A U56G]	9.78e-05 ± 3.6e-05	0.000254 ± 3.2e-05	0.000151 ± 2e-05	0.000906 ± 8.9e-05
AUAAAAGCGCCACAACUACAGAAAUGUAGUUGACGAGGAUGAGGUUUAUCGAAUUUUCCGCGGAUGCCUCCAAA [G13C G40U G59C]	< 1e-05	< 1e-05	< 1e-05	
AUAAAAGCGCCAGAACUACAGAAAUGUAGUUGACGACGAGGAGGUUUAUCGAAUUUUCGGCGGACGCCUCCAAA [G37C U65C]	< 1e-05	< 1e-05	< 1e-05	
AUAAAAGCGUCAGAACUACAGAAAUGUAGUUGACGAGGAGGAGGUUUAGCGAAUUUUCGGCGGAUGCCUCCAAA [C10U U49G]	< 1e-05		< 1e-05	

— the supplement of paper PMC7125110
